System: T1, promolecule containing protonectin (portion A), PR linker (X2) and PAR-1 exosite recognition sequence (portion Z), Cy3 on an N-terminal lysine
T1 sequence: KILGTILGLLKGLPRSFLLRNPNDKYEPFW

thrombin
KM (Michaelis-Menten, digestion followed by reverse phase HPLC): KM 200 nM
kcat/KM (Michaelis-Menten, digestion followed by reverse phase HPLC): kcat/KM=8 µM^-1 sec^-1

Reference: patent US20180085476
